From the supplement of paper PMC11316812
± gives the standard deviation of the averaged measurements.

What was measured:
MCF7 = test: percentage of EdU-negative (G0-arrested) nuclei per well, 72 h; higher = more G0 arrest; conditions: reference: sequence is the full UniProt precursor, the tested protein was the secreted form or ectodomain
hTERT-HMEC = test: as above; conditions: reference: sequence is the full UniProt precursor, the tested protein was the secreted form or ectodomain
[1] = protein concentration 0.0225 µM
[2] = protein concentration 0.03125 µM
[3] = protein concentration 0.3125 µM
[4] = protein concentration 0.0257143 µM
[5] = protein concentration 0.257143 µM
[6] = protein concentration 0.0082175 µM
[7] = protein concentration 0.01138 µM
[8] = protein concentration 0.082175 µM
[9] = protein concentration 0.1138 µM
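Further: secreted proteins added to cultured cells, EdU pulse at the end, nuclei found by Hoechst imaging, EdU status from nuclear versus surrounding ring intensity ratio, PBS as neutral control.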

With “MESPSAPPHRWCIPWQRLLLTASLLTFWNPPTTAKLTIESTPFNVAEGKEVLLLVHNLPQHLFGYSWYKGERVDGNRQIIGYVIGTQQATPGPAYSGREIIYPNASLLIQNIIQNDTGFYTLHVIKSDLVNEEATGQFRVYPELPKPSISSNNSKPVEDKDAVAFTCEPETQDATYLWWVNNQSLPVSPRLQLSNGNRTLTLFNVTRNDTASYKCETQNPVSARRSDSVILNVLYGPDAPTISPLNTSYRSGENLNLSCHAASNPPAQYSWFVNGTFQQSTQELFIPNITVNNSGSYTCQAHNSDTGLNRTTVTTITVYAEPPKPFITSNNSNPVEDEDAVALTCEPEIQNTTYLWWVNNQSLPVSPRLQLSNDNRTLTLLSVTRNDVGPYECGIQNELSVDHSDPVILNVLYGPDDPTISPSYTYYRPGVNLSLSCHAASNPPAQYSWLIDGNIQQHTQELFISNITEKNSGLYTCQANNSASGHSRTTVKTITVSAELPKPSISSNNSKPVEDKDAVAFTCEPEAQNTTYLWWVNGQSLPVSPRLQLSNGNRTLTLFNVTRNDARAYVCGIQNSVSANRSDPVTLDVLYGPDTPIISPPDSSYLSGANLNLSCHSASNPSPQYSWRINGIPQQHTQVLFIAKITPNNNGTYACFVSNLATGRNNSIVKSITVSASGTSPGLSAGATVGIMIGVLVGVALI” the “percentage of EdU-negative” value (MCF7; [1]) was 26.7 ± 2.2%, the “percentage of EdU-negative” value (MCF7; protein concentration 0.225 µM) was 25.3 ± 0.33% and the “percentage of EdU-negative” value (hTERT-HMEC; [1]) was 5.67 ± 0.092%. The “percentage of EdU-negative” value (hTERT-HMEC; protein concentration 0.225 µM) was 5.42 ± 0.42%.
“MEKLLCFLVLTSLSHAFGQTDMSRKAFVFPKESDTSYVSLKAPLTKPLKAFTVCLHFYTELSSTRGYSIFSYATKRQDNEILIFWSKDIGYSFTVGGSEILFEVPEVTVAPVHICTSWESASGIVEFWVDGKPRVRKSLKKGYTVGAEASIILGQEQDSFGGNFEGSQSLVGDIGNVNMWDFVLSPDEINTIYLGGPFSPNVLNWRALKYEVQGEVFTKPQLWP” was tested, and the “percentage of EdU-negative” value (MCF7; [2]) was 24.1 ± 2.6%, the “percentage of EdU-negative” value (MCF7; [3]) was 25.3 ± 0.79% and the “percentage of EdU-negative” value (hTERT-HMEC; [2]) was 4.41 ± 0.15%. For the same sequence, the “percentage of EdU-negative” value (hTERT-HMEC; [3]) was 5.8 ± 1.1%.
With “MKSLTWILGLWALAACFTPGESQRGPRGPYPPGPLAPPQPFGPGFVPPPPPPPYGPGRIPPPPPAPYGPGIFPPPPPQP” the “percentage of EdU-negative” value (MCF7; [4]) was 26.1 ± 0.69%, the “percentage of EdU-negative” value (MCF7; [5]) was 29.6 ± 2.1% and the “percentage of EdU-negative” value (hTERT-HMEC; [4]) was 5.18 ± 0.72%. For the same sequence, the “percentage of EdU-negative” value (hTERT-HMEC; [5]) was 6.25 ± 0.39%.
For “MRVLGGRCGALLACLLLVLPVSEANFLSKQQASQVLVRKRRANSLLEETKQGNLERECIEELCNKEEAREVFENDPETDYFYPKYLVCLRSFQTGLFTAARQSTNAYPDLRSCVNAIPDQCSPLPCNEDGYMSCKDGKASFTCTCKPGWQGEKCEFDINECKDPSNINGGCSQICDNTPGSYHCSCKNGFVMLSNKKDCKDVDECSLKPSICGTAVCKNIPGDFECECPEGYRYNLKSKSCEDIDECSENMCAQLCVNYPGGYTCYCDGKKGFKLAQDQKSCEVVSVCLPLNLDTKYELLYLAEQFAGVVLYLKFRLPEISRFSAEFDFRTYDSEGVILYAESIDHSAWLLIALRGGKIEVQLKNEHTSKITTGGDVINNGLWNMVSVEELEHSISIKIAKEAVMDINKPGPLFKPENGLLETKVYFAGFPRKVESELIKPINPRLDGCIRSWNLMKQGASGIKEIIQEKQNKHCLVTVEKGSYYPGSGIAQFHIDYNNVSSAEGWHVNVTLNIRPSTGTGVMLALVSGNNTVPFAVSLVDSTSEKSQDILLSVENTVIYRIQALSLCSDQQSHLEFRVNRNNLELSTPLKIETISHEDLQRQLAVLDKAMKAKVATYLGGLPDVPFSATPVNAFYNGCMEVNINGVQLDLDEAISKHNDIRAHSCPSVWKKTKNS”, the “percentage of EdU-negative” value (MCF7; [6]) was 25.6 ± 0.65%, the “percentage of EdU-negative” value (MCF7; [7]) was 28.4 ± 1.6% and the “percentage of EdU-negative” value (MCF7; [8]) was 27.3 ± 4.3%. For the same sequence, the “percentage of EdU-negative” value (MCF7; [9]) was 28.2 ± 3.1%, the “percentage of EdU-negative” value (hTERT-HMEC; [6]) was 4.46 ± 0.51% and the “percentage of EdU-negative” value (hTERT-HMEC; [7]) was 4.81 ± 0.94%. The “percentage of EdU-negative” value (hTERT-HMEC; [8]) was 7.16 ± 1.3% and the “percentage of EdU-negative” value (hTERT-HMEC; [9]) was 5.79 ± 0.86%.
For “MYTAIPQSGSPFPGSVQDPGLHVWRVEKLKPVPVAQENQGVFFSGDSYLVLHNGPEEVSHLHLWIGQQSSRDEQGACAVLAVHLNTLLGERPVQHREVQGNESDLFMSYFPRGLKYQEGGVESAFHKTSTGAPAAIKKLYQVKGKKNIRATERALNWDSFNTGDCFILDLGQNIFAWCGGKSNILERNKARDLALAIRDSERQGKAQVEIVTDGEEPAEMIQVLGPKPALKEGNPEEDLTADKANAQAAALYKVSDATGQMNLTKVADSSPFALELLISDDCFVLDNGLCGKIYIWKGRKANEKERQAALQVAEGFISRMQYAPNTQVEILPQGHESPIFKQFFKDWK”, the “percentage of EdU-negative” value (MCF7; [1]) was 24.6 ± 2.7%, the “percentage of EdU-negative” value (MCF7; protein concentration 0.225 µM) was 26.02 ± 0.14% and the “percentage of EdU-negative” value (hTERT-HMEC; [1]) was 5.3073 ± 0.0047%. The “percentage of EdU-negative” value (hTERT-HMEC; protein concentration 0.225 µM) was 6.38 ± 0.68%.
